# B1: HpFT-2HR: H. pylori α-1,3-fucosyltransferase variant: catalytically active domain, two heptapeptide repeat sequences and C-terminus fused His tag (protein)
# chain: MFQPLLDAFIESASIEKMVSKSPPPPLKIAVANWWGDEEIKEFKKSVLYFILSQRYAITLHQNPNESSDLVFSNPLGAARKILSYQNTKRVFYTGENESPNFNLFDYAIGFDELDFNDRYLRMPLYYAHLHYEAELVNDTTAPYKLKDNSLYALKKPSHHFKENHPNLCAVVNDESDLLKRGFASFVASNANAPMRNAFYDALNSIEPVTGGGSVRNTLGYKVGNKSEFLSQYKFNLCFENSQGYGYVTEKILDAYFSHTIPIYWGSPSVAKDFNPKSFVNVHDFNNFDEAIDYIKYLHTHPNAYLDMLYENPLNTLDGKAYFYQDLSFKKILDFFKTILENDTIYHNNPFIFYRDLHEPLISIDDLRVNYDDLRVNYLEHHHHHH
# modifications: Catalytically active domain of Helicobacter pylori Alpha-(1,3)-fucosyltransferase (GenBank No.AAD07710.1) with 2 heptapeptide repeats and a C-terminal His tag
# Legend:
# Type in all cases: biochemical
# [1] = system: Trastuzumab-(GalNAzβ1,4)GlcNAc; assay: HpFT-2HR and HpFT-4HR transferring GDP-FAmP4Biotin or GDP-FAzP4Biotin to Trastuzumab-(GalNAzβ1,4)GlcNAc; conditions: enzyme 0.5 mg/mL, 6 h, FIG. 6(B)
# Protocol: (§1) To 40 mM Tris-HCl (pH 7.5) buffer were added Trastuzumab-(Fucα1,6)(Galβ1,4)GlcNAc (2 mg/mL final), GDP-FAmP4Biotin (1 mM final), MgCl2 (20 mM final), and different HpFT enzymes (HpFT-4HR, HpFT-4HR(M4), HpFT-4HR(M7), HpFT-6HR, HpFT-3HR, HpFT-2HR, HpFT-1HR or HpFT-0HR) (0.5 mg/mL final) in sequence, and the resulting mixed solution was allowed to react at 30° C. for 1 h. Three parallels were set up for each group. After the reaction time point was reached, to the reaction solution was added 10 mM LacNA, and the reaction was terminated by a desalting column (Zeba™ Spin Desalting Columns/2 ml/40K, Thermo Fisher Scientific), and finally mass spectrometry was carried out and % of conversion was calculated. % of conversion=(MAR0 peak intensity*0+MAR1peak intensity*1+MAR2 peak intensity*2)/2* (MAR0 peak intensity+MAR1 peak intensity+MAR2 peak intensity)*100%.
# To 40 mM Tris-HCl (pH 7.5) buffer were added Trastuzumab-(GalNAzβ1,4)GlcNAc (2 mg/mL final), GDP-FAmP4Biotin or GDP-FAzP4Biotin (1 mM final), MgCl2 (20 mM final), and HpFT-2HR or HpFT-4HR (0.5 mg/mL final) in sequence, and the resulting mixed solution was allowed to react at 30 t for 6 h. Three parallels were set up for each group. After the reaction time point was reached, to the reaction solution was added 10 mM LacNAc, and the reaction was terminated by a desalting column (Zeba™ Spin Desalting Columns/2 ml/40K, Thermo Fisher Scientific), and finally mass spectrometry was carried out and % of conversion was calculated. % of conversion was calculated according to Example 18.
# [2] = system: Trastuzumab-(Fucα1,6)(GalNAzβ1,4)GlcNAc; assay: Transfer of GDP-FAmP4Biotin to Trastuzumab-(Fucα1,6)(GalNAzβ1,4)GlcNAc by different HpFTs; conditions: donor GDP-FAmP4Biotin 1 mM, enzyme 0.5 mg/mL, 30° C., 3 h; FIG. 3
# [3] = system: Trastuzumab-(Fucα1,6)(Galβ1,4)GlcNAc; assay: Transfer of GDP-FAmP4Biotin to Trastuzumab-(Fucα1,6)(Galβ1,4)GlcNAc by different HpFTs; conditions: donor GDP-FAmP4Biotin 1 mM, enzyme 0.5 mg/mL, 30° C., 1 h; FIG. 2
# Protocol: as §1
molecule,measurement,setting,value
B1,activity in catalyzing the transfer of GDP-FAmP4Biotin relative to transfer of GDP-FAzP4Biotin,[1]; donor 1 mM,significantly higher
same,"activity in catalyzing the transfer of GDP-FAmP4Biotin, as compared with HpFT-4HR",[1]; donor GDP-FAmP4Biotin 1 mM,significantly improved activity
same,"activity in catalyzing the transfer of GDP-FAzP4Biotin, as compared with HpFT-4HR",[1]; donor GDP-FAzP4Biotin 1 mM,significantly improved activity
same,catalytic activity among the HpFT variants,[2],relatively high catalytic activity
same,catalytic activity as compared with HpFT-4HR (% of conversion),[2],significantly improved catalytic activity
same,catalytic activity as compared with HpFT-4HR (% of conversion),[3],significantly improved catalytic activity

# — patent US20240335558A1, “ISOLATED POLYPEPTIDE AND USE THEREOF” (GLYCO-THERAPY BIOTECHNOLOGY CO., LTD., priority 2021, published 2024)
